Test results published in paper PMC7515635 (2020).

B1: GST-GABARAP (natural protein)
chain: MKFVYKEEHPFEKRRSEGEKIRKKYPDRVPVIVEKAPKARIGDLDKKKYLVPSDLTVGQFYFLIRKRIHLRAEDALFFFVNNVIPPTSATMGQLYQEHHEEDFFLYIAYSDESVYGL
B2: HIS6-AtC53 (natural protein)
chain: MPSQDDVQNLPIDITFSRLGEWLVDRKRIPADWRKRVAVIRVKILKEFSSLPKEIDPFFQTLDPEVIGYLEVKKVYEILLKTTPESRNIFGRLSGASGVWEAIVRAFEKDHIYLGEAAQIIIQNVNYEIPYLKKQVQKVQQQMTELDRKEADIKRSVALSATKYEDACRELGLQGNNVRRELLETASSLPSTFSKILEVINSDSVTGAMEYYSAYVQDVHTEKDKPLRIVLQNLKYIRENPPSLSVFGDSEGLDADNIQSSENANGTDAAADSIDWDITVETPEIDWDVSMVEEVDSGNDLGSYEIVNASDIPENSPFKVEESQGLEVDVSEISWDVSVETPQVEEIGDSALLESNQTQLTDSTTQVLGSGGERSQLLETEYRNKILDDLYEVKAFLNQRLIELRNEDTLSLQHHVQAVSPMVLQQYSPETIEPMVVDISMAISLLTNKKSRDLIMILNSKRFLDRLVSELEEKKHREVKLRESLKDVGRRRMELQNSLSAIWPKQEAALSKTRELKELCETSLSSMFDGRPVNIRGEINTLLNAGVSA
B3: GST-ATG8A (natural protein)
chain: MAKSSFKISNPLEARMSESSRIREKYPDRIPVIVEKAGQSDVPDIDKKKYLVPADLTVGQFVYVVRKRIKLGAEKAIFVFVKNTLPPTAALMSAIYEEHKDEDGFLYMTYSGENTFG

Key:
[1] = target: AIM wt peptide; test: SPR
[2] = target: B3; test: SPR; derived from AIM wt peptide competition

Row | Binder | Kd [1] | Kd [2]
1 | B1 | 1640 nM | –
2 | B2 | – | ~1390 nM
3 | B3 | 5880 nM | –
